Legend:
TrAP (Trx-His fusion) = TrAP (Trx-His fusion) (Cotton leaf curl Kokhran virus, UniProt O72711 1-134); test: EMSA; conditions: protein: recombinant; tags: N-terminal Trx-His (pET32a); label: 5'-32P
V2 (Trx-His fusion) = V2 (Trx-His fusion) (Cotton leaf curl Kokhran virus, UniProt Q6JIB8 1-118); test: EMSA; conditions: protein: recombinant; tags: N-terminal Trx-His (pET32a); label: 5'-32P

Row | Binder | binding result (TrAP (Trx-His fusion)) | binding result (V2 (Trx-His fusion))
1 | AGAGUGCCAUGCCCGAAGGUU (ssRNA) [21 nt ssRNA] | binds | –
2 | AGAGUGCCAUGCCCGAAGGUUAUU (ssRNA) [24 nt ssRNA] | binds | –
3 | AGAGTGCCATGCCCGAAGGTT (ssDNA) [21 nt ssDNA] | binds | –
4 | 69 nt ssDNA (SalI-XbaI-HA-Tag oligo, by length) (ssDNA) DNA: GCGTCGACGTCTTGCTCTAGAGATGTATCCATATGATGTTCCGGATTACGCGGAACGAGCTATACAAGG | binds | binds

Source: article PMC4690014, “Functional Analysis of Cotton Leaf Curl Kokhran Virus/Cotton Leaf Curl Multan Betasatellite RNA Silencing Suppressors”
